# Measurements taken from publication PMC6057269 (2018).
# B1: GST-tagged ITSN1 SH3d (aa1076-1138), wild type [human] / FCHSD2 SH3-2 (aa568-629), recombinant [human] (parent complex)
# chain 1: PEIAQVIASYTATGPEQLTLAPGQLILIRKKNPGGWWEGELQARGKKRQIGWFPANYVKLLSP
# chain 2: SVCFVKALYDYEGQTDDELSFPEGAIIRILNKENQDDDGFWEGEFNGRIGVFPSVLVEELSA
# B2: GST-tagged FCHSD2 SH3-2 (aa568-629), wild type [human] / ITSN1 SH3d (aa1076-1138), recombinant [human] (parent complex)
# chain 1: B1 chain 2
# chain 2: B1 chain 1
# Variants of: B1
# Assay: GST pull-down, Coomassie stained gel, band quantification; n = 3 experiments, mean ± SD; parent: 1; read off a plot
row,Variant,ratio to parent
1,chain 1 I3K,~0.08
2,chain 1 I3S,~0.08
3,chain 1 R48E,~0.4
4,chain 1 R44E,~0.08
5,chain 1 R44A,~0.08
6,chain 1 T11A,~1.1

# Variants of: B2
# Assay: as above
row,Variant,ratio to parent
1,chain 1 F40S,~0.3
2,chain 1 N46A,~1.2
3,chain 1 V55S,~0.8
4,chain 1 Y9S,~0.45
5,"chain 1 V55K, chain 1 L56K",~0.1
6,chain 1 D17K,~0.9
7,chain 1 D16A,~1.1
8,"chain 1 Y9S, chain 1 F40S",~0.15
